T1: human prolactin receptor (PRLR) expressed on cells (human) (UniProt P16471)
T1 sequence: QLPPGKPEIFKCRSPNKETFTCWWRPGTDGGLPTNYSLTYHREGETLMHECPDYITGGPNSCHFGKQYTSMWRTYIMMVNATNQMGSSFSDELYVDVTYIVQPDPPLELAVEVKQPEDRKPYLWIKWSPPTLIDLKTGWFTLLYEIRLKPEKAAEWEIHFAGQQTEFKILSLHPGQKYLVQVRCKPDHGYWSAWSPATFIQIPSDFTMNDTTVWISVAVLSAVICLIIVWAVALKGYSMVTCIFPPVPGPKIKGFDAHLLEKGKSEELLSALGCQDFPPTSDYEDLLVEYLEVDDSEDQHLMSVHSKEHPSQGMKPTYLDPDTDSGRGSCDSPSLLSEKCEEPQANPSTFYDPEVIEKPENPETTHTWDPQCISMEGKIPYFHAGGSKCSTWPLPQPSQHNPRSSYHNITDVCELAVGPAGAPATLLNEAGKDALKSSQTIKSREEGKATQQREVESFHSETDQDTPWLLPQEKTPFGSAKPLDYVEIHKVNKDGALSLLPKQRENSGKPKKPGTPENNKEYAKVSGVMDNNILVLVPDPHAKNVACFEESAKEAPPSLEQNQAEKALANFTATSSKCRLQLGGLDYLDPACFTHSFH


Experiments:
[1] = target: T1, human prolactin receptor (PRLR) expressed on cells (human); assay: flow cytometry on CHO-K1 cells expressing human PRLR (clone 1G5)
[2] = target: T1, human prolactin receptor (PRLR) expressed on cells (human); assay: cell-based or functional assay

MFI [1] | pERK1/2 inhibition IC50 [2] | Molecule
33.8 MFI | – | mAb 1167, control murine anti-PRLR monoclonal antibody (R&D Systems, catalog # MAB 1167)
– | 0.11 | XHA.06.983 (antibody, from another filing, V domains shown) VH: DVQLVESGGGLVQPGGSRKLSCAASGFAFSSFGMQWVRQAPEKGLEWVAYISSGSSTIYYADTVKGRFTISRDNPKNTLFLQMTSLRSEDTAMYYCVRSGRDYWGQGTSVTVSS VL: SIVMTQTPKFLLVSAGDRVTITCKASQGVSNDVAWFQQKPGQSPKLLIYSASTRYTGVPDRLTGSGYGTDFTFTINTVQAEDLAVYFCQQDYTSPTFGGGTKLEIKR
